Data: US20200069775A1, “BRAIN OSTEOCALCIN RECEPTOR AND COGNITIVE DISORDERS” (The Trustees of Columbia University in the City of New York, priority 2017, published 2020)

Target: T1, Gpr158 (Mus musculus, UniProt Q8C419)
T1 sequence (Q8C419 25-1200): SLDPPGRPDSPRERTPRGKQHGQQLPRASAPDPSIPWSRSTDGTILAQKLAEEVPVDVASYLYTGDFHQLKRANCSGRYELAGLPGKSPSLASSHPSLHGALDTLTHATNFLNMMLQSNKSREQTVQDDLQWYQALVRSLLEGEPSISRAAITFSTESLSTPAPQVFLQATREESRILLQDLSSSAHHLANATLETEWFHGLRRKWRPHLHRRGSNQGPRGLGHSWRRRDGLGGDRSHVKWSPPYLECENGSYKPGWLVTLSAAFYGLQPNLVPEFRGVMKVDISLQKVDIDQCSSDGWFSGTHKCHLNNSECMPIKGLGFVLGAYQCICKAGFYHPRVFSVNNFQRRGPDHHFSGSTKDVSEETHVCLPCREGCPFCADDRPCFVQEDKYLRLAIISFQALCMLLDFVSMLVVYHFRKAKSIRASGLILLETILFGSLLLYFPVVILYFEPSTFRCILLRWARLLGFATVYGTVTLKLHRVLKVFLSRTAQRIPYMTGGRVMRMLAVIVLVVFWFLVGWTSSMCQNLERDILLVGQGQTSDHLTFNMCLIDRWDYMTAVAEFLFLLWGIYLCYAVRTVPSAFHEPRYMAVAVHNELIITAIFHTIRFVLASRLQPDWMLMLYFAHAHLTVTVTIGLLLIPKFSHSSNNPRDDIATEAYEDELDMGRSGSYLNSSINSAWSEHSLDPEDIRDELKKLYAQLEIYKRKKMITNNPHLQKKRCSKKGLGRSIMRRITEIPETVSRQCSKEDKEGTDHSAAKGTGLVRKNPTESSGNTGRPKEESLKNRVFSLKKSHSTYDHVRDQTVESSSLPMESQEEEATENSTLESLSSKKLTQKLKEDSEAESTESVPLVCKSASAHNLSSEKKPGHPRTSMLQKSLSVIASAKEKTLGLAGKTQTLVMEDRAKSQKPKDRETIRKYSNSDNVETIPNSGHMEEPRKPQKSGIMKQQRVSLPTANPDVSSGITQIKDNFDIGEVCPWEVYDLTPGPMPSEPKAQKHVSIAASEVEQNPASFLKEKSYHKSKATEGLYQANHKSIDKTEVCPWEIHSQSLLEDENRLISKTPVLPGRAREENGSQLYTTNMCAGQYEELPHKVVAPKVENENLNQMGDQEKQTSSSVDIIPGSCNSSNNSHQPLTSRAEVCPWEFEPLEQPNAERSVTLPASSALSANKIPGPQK
Experiment: Whole-cell current clamp in CA3 pyramidal neurons of WT and Gpr158−/− hippocampal slices
Assay type: cell-based
Parameters: visually identified pyramidal neurons in the CA3 area of the hippocampus; from tissue; host or cells: coronal hippocampal slices of 3-4 week old male WT and Gpr158-/- mice
Procedure: Coronal brain slices containing the hippocampus were prepared from wild type and KO mice (3-4 weeks old, male) as previously reporte. Briefly, mice were anesthetized with isoflurane and then decapitated to harvest brains, which were rapidly removed and immersed in an oxygenated cutting solution at 4° C. containing (in mM): sucrose 220, KCl 2.5, CaCl2 1, MgCl2 6, NaH2PO4 1.25, NaHCO3 26, and glucose 10, and adjusted to pH 7.3 with NaOH. Coronal slices containing the hioopcampus (300 μm thick) were cut with a vibratome, trimmed to contain just the hippocampus. After preparation, slices were stored in a holding chamber with an oxygenated (with 5% CO2 and 95% O2) artificial cerebrospinal fluid (ACSF) containing (in mM): NaCl 124, KCl3, CaCl2 2, MgCl2 2, NaH2PO4 1.23, NaHCO3 26, glucose 10, pH 7.4 with NaOH. The slices were eventually transferred to a recording chamber constantly perfused with ACSF at 33° C. at a rate of 2 ml/min after at least a 1 hour recovery in the storage chamber. […] After a stable base of APs were recorded for 10 minutes, osteocalcin was applied to the recorded cells through bath application at a concentration of 10 ng/ml for 5-10 minutes and then washed out with ACSF. […] Action potentials were detected and analyzed with AxoGraph X and plotted with Igor Pro software (WaveMetrics, Lake Oswego, Oreg.).

- CA3 pyramidal neurons showing the effect on spontaneous AP frequency (WT): 4 of 4 cells
Substance: osteocalcin: Recombinant osteocalcin bacterially produced, cleaved from the GST subunit; completely undercarboxylated at all three sites; full-length mouse osteocalcin (YLGASVPSPDPLEPTREQCELNPACDELSDQYGLKTAYKRIYGITI)
- action potential frequency in pyramidal cells of the CA3 region (WT hippocampi, 10 ng/ml): significantly enhanced the action potential frequency
